In US20260116920A1 (PEPTIDREAM, published 2026):
Starred links: 1 amine or outer side, 2 acyl side, 3 side chain; linkers in the order of their positions; H or OH if unused. Positions of bridges follow the written chain, without caps; N, C: chain ends. Non-standard residues stand in square brackets, D forms with d. Primed or numbered codes have the meaning given here. No end group written: not given here. E(PEG8Me) = (S)-30-amino-27-oxo-2,5,8,11,14,17,20,23-octaoxa-26-azahentriacontane-31-oic acid, COCCOCCOCCOCCOCCOCCOCCOCCNC(=O)CC[C@H](N[*:1])C(=O)[*:2]; E(PEG4Me) = (S)-18-amino-15-oxo-2,5,8,11-tetraoxa-14-azanonadecane-19-oic acid, COCCOCCOCCOCCNC(=O)CC[C@H](N[*:1])C(=O)[*:2]; Phe(4-OMe)(3) = (S)-2-amino-3-(4-methoxyphenyl)propanoic acid (source code F4OMe), COc1ccc(C[C@H](N[*:1])C(=O)[*:2])cc1; F4aao = (S)-2-amino-3-(4-(carboxymethoxy)phenyl)propanoic acid, O=C([C@H](Cc1ccc(OCC(=O)[*:3])cc1)N[*:1])[*:2]; Phe(4-OMe) = F4OMe = (S)-2-amino-3-(4-methoxyphenyl)propanoic acid, COc1ccc(C[C@H](N[*:1])C(=O)[*:2])cc1; E(NHdPEG1Me) = N5-(1,3-dimethoxypropan-2-yl)-L-glutamine, COCC(COC)NC(=O)CC[C@H](N[*:1])C(=O)[*:2]; dkCOmeglumine = N6-(methyl((2S,3R,4R,5R)-2,3,4,5,6-pentahydroxyhexyl)carbamoyl)-D-lysine; Trp(1-CH2CO) = O=C([C@H](Cc1cn(CC(=O)[*:3])c2ccccc12)N[*:1])[*:2]; Trp(5-Cl) = N[C@@H](Cc1c[nH]c2ccc(Cl)cc12)C(=O)O; Nle(6-morpholino) = N[C@@H](CCCCN1CCOCC1)C(=O)O; Phe(3-COOH) = N[C@@H](Cc1cccc(C(=O)O)c1)C(=O)O; Trp(7-aza) = N[C@@H](Cc1c[nH]c2ncccc12)C(=O)O; NMePhe(3-Cl) = CN[C@@H](Cc1cccc(Cl)c1)C(=O)O; NMePhe(4-F) = CN[C@@H](Cc1ccc(F)cc1)C(=O)O; NMeW = CN[C@@H](Cc1c[nH]c2ccccc12)C(=O)O; PEG8 = NCCOCCOCCOCCOCCOCCOCCOCCOCCC(=O)O; Lys(N3) = [N-]=[N+]=NCCCC[C@H](N)C(=O)O; NMeY = CN[C@@H](Cc1ccc(O)cc1)C(=O)O; NMeR = CN[C@@H](CCCNC(=N)N)C(=O)O; NMeF = CN[C@@H](Cc1ccccc1)C(=O)O; 3Pal = N[C@@H](Cc1cccnc1)C(=O)O; 4Pal = N[C@@H](Cc1ccncc1)C(=O)O

B1: 894_0261 (peptide)
peptide: {CH2CO}-AV[NMePhe(4-F)]V[NMeW]NY[Phe(4-OMe)]IIR[dR]FYC-NH2
modifications: thioether N-15; not fully specified (residue 14); also: linker PEG4c, place not given here
B2: 894_0259 (peptide)
peptide: {CH2CO}-AV[NMePhe(4-F)]V[Trp(5-Cl)]NY[Phe(4-OMe)]II[NMeR][dR]FYC-NH2
modifications: thioether N-15; not fully specified (residue 14); also: linker PEG4c, place not given here
B3: 894_0253 (peptide)
peptide: {CH2CO}-AV[NMeF]V[Trp(5-Cl)]NY[Phe(4-OMe)]IIR[dR]FYC-NH2
modifications: thioether N-15; not fully specified (residue 14); also: linker PEG4c, place not given here
B4: 894_3182 (peptide)
peptide: {CH2CO}-AV[NMePhe(3-Cl)]V[Trp(1-CH2CO)]NY[F4aao]IIRRF[NMeY]CG[PEG8][Lys(N3)]-NH2
modifications: thioether N-15
SMILES: CC[C@H](C)[C@@H]1NC(=O)[C@H](Cc2ccc(OCC(=O)O)cc2)NC(=O)[C@H](Cc2ccc(O)cc2)NC(=O)[C@H](CC(N)=O)NC(=O)[C@H](Cc2cn(CC(=O)O)c3ccccc23)NC(=O)[C@H](C(C)C)NC(=O)[C@H](Cc2cccc(Cl)c2)N(C)C(=O)[C@H](C(C)C)NC(=O)[C@H](C)NC(=O)CSC[C@@H](C(=O)NCC(=O)NCCOCCOCCOCCOCCOCCOCCOCCOCCC(=O)N[C@@H](CCCCN=[N+]=[N-])C(N)=O)NC(=O)[C@H](Cc2ccc(O)cc2)N(C)C(=O)[C@H](Cc2ccccc2)NC(=O)[C@H](CCCNC(=N)N)NC(=O)[C@H](CCCNC(=N)N)NC(=O)[C@H]([C@@H](C)CC)NC1=O
B5: 894_0258 (peptide)
peptide: {CH2CO}-AV[NMePhe(4-F)]V[Trp(5-Cl)]NY[Phe(4-OMe)]IIR[dR]FYC-NH2
modifications: thioether N-15; not fully specified (residue 14); also: linker PEG4c, place not given here
B6: 894_0262 (peptide)
peptide: {CH2CO}-AV[NMePhe(4-F)]V[NMeW]NY[Phe(4-OMe)]II[NMeR][dR]FYC-NH2
modifications: thioether N-15; not fully specified (residue 14); also: linker PEG4c, place not given here
B7: 894_3193 (peptide)
peptide: AVFVWNYAIIRRAYC
modifications: 3:MeF3C,8:3Py,13:4Py,14:MeY; linker G-de-de-de-ds-ds-KN3; ClAc-1/C15 thioether ring; C-term NH2

Each binder was assayed against T1, human transferrin receptor (hTfR) (human, UniProt P02786 89-760) (assay: SPR; B = KD 1-100 nM).
T1 construct: used as 0.5 uM hTfR dimer solution, immobilised on an NTA sensor chip (Ni capture plus EDC/NHS coupling); also called human TfR; TfR1
In short: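 Recombinant hTfR dimer immobilised on Ni-NTA chip with EDC/NHS coupling; running buffer 10 mM HEPES pH 8.0, 150 mM NaCl, 0.05% Tween 20, 0.1% BSA, 1.0% DMSO. Peptides injected at 5–100 nM in single-cycle kinetics; KD from least-squares sensorgram fitting.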

T1 sequence (P02786 89-760 limits assumed): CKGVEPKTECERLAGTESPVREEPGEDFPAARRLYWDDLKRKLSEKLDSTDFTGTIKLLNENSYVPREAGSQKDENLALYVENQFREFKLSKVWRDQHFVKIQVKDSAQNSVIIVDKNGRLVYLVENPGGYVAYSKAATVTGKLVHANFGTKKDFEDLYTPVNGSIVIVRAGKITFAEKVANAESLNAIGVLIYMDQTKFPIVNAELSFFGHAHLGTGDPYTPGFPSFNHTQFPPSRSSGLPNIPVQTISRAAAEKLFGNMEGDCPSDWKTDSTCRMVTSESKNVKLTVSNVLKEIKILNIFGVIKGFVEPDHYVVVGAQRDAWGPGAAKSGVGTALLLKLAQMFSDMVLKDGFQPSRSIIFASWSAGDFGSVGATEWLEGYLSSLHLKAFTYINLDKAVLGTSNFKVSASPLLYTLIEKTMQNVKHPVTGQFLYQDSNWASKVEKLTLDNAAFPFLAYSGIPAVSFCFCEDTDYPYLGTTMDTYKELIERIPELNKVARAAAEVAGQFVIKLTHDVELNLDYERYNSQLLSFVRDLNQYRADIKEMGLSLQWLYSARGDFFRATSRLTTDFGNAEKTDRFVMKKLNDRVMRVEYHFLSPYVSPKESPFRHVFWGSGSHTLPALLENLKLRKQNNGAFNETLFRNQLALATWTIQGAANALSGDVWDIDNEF

| KD [nM] | Binder |
| --- | --- |
| 1 to 100 | Ac-AV[NMePhe(3-Cl)]V[Trp(1-CH2CO)]NY[F4aao]IIRR[Phe(3-COOH)][NMeY]C (thioether (positions not given here); not fully specified (C-terminus, bridges)) [894_0342] |
| 1 to 100 | {CH2CO}-AV[NMeF]VWNY[Phe(4-OMe)]IIR[dR]FYC-NH2 (thioether N-15; not fully specified (residue 14); also: linker PEG4c) [894_0283, listing 1 of 2 here] |
| 1 to 100 | B1 |
| 1 to 100 | {CH2CO}-AV[NMeF]VWNY[Phe(4-OMe)]II[NMeR]RFYC-NH2 (thioether N-15; not fully specified (residue 14); also: linker PEG4c) [894_0285, listing 1 of 2 here] |
| 1 to 100 | B2 |
| 1 to 100 | B3 |
| 1 to 100 | B4 |
| 1 to 100 | Ac-AV[NMePhe(3-Cl)]VWNY[3Pal]IIQQ[4Pal][NMeY]C (thioether (positions not given here); not fully specified (C-terminus, bridges)) [894_0327] |
| 1 to 100 | B5 |
| 1 to 100 | {CH2CO}-AV[NMePhe(3-Cl)]V[Trp(1-CH2CO)]NY[F4aao]IIRRFYC-NH2 (thioether N-15; not fully specified (residue 14); also: linker PEG4c) [894_0295] |
| 1 to 100 | B6 |
| 1 to 100 | {CH2CO}-AV[NMeF]VWNY[Phe(4-OMe)]II[NMeR]RFYC-NH2 (thioether N-15; not fully specified (residue 14); also: linker PEG4c) [894_0285, listing 2 of 2 here] |
| 1 to 100 | {CH2CO}-AV[NMeF]VWNY[Phe(4-OMe)]IIR[dR]FYC-NH2 (thioether N-15; not fully specified (residue 14); also: linker PEG4c) [894_0283, listing 2 of 2 here] |
| 1 to 100 | {CH2CO}-AV[NMePhe(3-Cl)]V[Trp(1-CH2CO)]NY[F4aao]II[E(PEG4Me)]RF[NMeY]C-NH2 (thioether N-15; also: linker PEG4c, place not given here) [894_0395] |
| 1 to 100 | {CH2CO}-AV[NMePhe(3-Cl)]V[Trp(1-CH2CO)]NY[F4aao]II[E(NHdPEG1Me)]RF[NMeY]C-NH2 (thioether N-15; also: linker PEG4c, place not given here) [894_0396] |
| 1 to 100 | {CH2CO}-AV[NMePhe(3-Cl)]V[Trp(1-CH2CO)]NY[F4aao]IIQ[Nle(6-morpholino)][4Pal][NMeY]C-NH2 (thioether N-15; also: linker PEG4c, attachment not given here) [894_0420] |
| 1 to 100 | {CH2CO}-AV[NMePhe(3-Cl)]V[Trp(7-aza)]NY[F4aao]II[E(PEG8Me)][Nle(6-morpholino)][4Pal][NMeY]C-NH2 (thioether N-15; also: linker PEG4c, attachment not given here) [894_0426] |
| 1 to 100 | {CH2CO}-AV[NMeF]V[Trp(1-CH2CO)]NY[F4aao]IIRRY[NMeY]C-NH2 (thioether N-15; also: linker G-de-de-de-ds-ds-KN3, attachment not given here) [894_3170] |
| 1 to 100 | {CH2CO}-AV[NMePhe(3-Cl)]V[Trp(7-aza)]NY[F4aao]IIQ[Nle(6-morpholino)][Phe(3-COOH)][NMeY]C-NH2 (thioether N-15; also: linker PEG4c, attachment not given here) [894_0428] |
| 1 to 100 | {CH2CO}-AV[NMePhe(3-Cl)]VWNY[3Pal]IIRR[4Pal][NMeY]CG-{dkCOmeglumine-dkCOmeglumine-dkCOmeglumine-dS-dS-Lys(N3)-NH2} (thioether N-15) [894_3192] |
| 1 to 100 | {CH2CO}-AV[NMePhe(3-Cl)]V[Trp(7-aza)]NY[F4aao]IIQR[4Pal][NMeY]C-NH2 (thioether N-15; also: linker PEG4c, attachment not given here) [894_0424] |
| 1 to 100 | {CH2CO}-AV[NMePhe(3-Cl)]V[Trp(1-CH2CO)]NY[F4aao]IIQR[4Pal][NMeY]C-NH2 (thioether N-15; also: linker PEG4c, place not given here) [894_0419] |
| 1 to 100 | {CH2CO}-AV[NMePhe(3-Cl)]V[Trp(1-CH2CO)]NY[F4aao]IIQR[Phe(3-COOH)][NMeY]C-NH2 (thioether N-15; also: linker PEG4c, attachment not given here) [894_0421] |
| 1 to 100 | B7 |
| 1 to 100 | {CH2CO}-AV[NMeF]VWNY[F4aao]IIRRY[NMeY]C-NH2 (thioether N-15; also: linker G-de-de-de-ds-ds-KN3, attachment not given here) [894_3169] |
| 1 to 100 | {CH2CO}-AV[NMePhe(3-Cl)]VWNY[Phe(4-OMe)(3)]IIKRF[NMeY]C (thioether N-15; not fully specified (C-terminus)) [894_3150] |
| 1 to 100 | {CH2CO}-AV[NMePhe(3-Cl)]V[Trp(7-aza)]NY[F4aao]IIQ[Nle(6-morpholino)][4Pal][NMeY]C-NH2 (thioether N-15; also: linker PEG4c, attachment not given here) [894_0425] |
